{
  "source": "paper PMC11440250",
  "about": "(iScience, 2024)",
  "target": "the molecule itself",
  "assay": "cross-linking",
  "data": [
    {"protein": "Flag-PKM2 K207R (enzyme) not shown", "values": [
      {"measurement": "binding result", "value": "binds"}
    ]}
  ]
}
